Source: patent US20170000857A1

Target: ALMS1 (Alstrom syndrome protein 1) (human) (UniProt Q8TCU4)
Assay: cell-based or functional assay

Sequence of UniProt Q8TCU4 (Q8TCU4 other isoform, or with tags, fused parts or gaps limits assumed): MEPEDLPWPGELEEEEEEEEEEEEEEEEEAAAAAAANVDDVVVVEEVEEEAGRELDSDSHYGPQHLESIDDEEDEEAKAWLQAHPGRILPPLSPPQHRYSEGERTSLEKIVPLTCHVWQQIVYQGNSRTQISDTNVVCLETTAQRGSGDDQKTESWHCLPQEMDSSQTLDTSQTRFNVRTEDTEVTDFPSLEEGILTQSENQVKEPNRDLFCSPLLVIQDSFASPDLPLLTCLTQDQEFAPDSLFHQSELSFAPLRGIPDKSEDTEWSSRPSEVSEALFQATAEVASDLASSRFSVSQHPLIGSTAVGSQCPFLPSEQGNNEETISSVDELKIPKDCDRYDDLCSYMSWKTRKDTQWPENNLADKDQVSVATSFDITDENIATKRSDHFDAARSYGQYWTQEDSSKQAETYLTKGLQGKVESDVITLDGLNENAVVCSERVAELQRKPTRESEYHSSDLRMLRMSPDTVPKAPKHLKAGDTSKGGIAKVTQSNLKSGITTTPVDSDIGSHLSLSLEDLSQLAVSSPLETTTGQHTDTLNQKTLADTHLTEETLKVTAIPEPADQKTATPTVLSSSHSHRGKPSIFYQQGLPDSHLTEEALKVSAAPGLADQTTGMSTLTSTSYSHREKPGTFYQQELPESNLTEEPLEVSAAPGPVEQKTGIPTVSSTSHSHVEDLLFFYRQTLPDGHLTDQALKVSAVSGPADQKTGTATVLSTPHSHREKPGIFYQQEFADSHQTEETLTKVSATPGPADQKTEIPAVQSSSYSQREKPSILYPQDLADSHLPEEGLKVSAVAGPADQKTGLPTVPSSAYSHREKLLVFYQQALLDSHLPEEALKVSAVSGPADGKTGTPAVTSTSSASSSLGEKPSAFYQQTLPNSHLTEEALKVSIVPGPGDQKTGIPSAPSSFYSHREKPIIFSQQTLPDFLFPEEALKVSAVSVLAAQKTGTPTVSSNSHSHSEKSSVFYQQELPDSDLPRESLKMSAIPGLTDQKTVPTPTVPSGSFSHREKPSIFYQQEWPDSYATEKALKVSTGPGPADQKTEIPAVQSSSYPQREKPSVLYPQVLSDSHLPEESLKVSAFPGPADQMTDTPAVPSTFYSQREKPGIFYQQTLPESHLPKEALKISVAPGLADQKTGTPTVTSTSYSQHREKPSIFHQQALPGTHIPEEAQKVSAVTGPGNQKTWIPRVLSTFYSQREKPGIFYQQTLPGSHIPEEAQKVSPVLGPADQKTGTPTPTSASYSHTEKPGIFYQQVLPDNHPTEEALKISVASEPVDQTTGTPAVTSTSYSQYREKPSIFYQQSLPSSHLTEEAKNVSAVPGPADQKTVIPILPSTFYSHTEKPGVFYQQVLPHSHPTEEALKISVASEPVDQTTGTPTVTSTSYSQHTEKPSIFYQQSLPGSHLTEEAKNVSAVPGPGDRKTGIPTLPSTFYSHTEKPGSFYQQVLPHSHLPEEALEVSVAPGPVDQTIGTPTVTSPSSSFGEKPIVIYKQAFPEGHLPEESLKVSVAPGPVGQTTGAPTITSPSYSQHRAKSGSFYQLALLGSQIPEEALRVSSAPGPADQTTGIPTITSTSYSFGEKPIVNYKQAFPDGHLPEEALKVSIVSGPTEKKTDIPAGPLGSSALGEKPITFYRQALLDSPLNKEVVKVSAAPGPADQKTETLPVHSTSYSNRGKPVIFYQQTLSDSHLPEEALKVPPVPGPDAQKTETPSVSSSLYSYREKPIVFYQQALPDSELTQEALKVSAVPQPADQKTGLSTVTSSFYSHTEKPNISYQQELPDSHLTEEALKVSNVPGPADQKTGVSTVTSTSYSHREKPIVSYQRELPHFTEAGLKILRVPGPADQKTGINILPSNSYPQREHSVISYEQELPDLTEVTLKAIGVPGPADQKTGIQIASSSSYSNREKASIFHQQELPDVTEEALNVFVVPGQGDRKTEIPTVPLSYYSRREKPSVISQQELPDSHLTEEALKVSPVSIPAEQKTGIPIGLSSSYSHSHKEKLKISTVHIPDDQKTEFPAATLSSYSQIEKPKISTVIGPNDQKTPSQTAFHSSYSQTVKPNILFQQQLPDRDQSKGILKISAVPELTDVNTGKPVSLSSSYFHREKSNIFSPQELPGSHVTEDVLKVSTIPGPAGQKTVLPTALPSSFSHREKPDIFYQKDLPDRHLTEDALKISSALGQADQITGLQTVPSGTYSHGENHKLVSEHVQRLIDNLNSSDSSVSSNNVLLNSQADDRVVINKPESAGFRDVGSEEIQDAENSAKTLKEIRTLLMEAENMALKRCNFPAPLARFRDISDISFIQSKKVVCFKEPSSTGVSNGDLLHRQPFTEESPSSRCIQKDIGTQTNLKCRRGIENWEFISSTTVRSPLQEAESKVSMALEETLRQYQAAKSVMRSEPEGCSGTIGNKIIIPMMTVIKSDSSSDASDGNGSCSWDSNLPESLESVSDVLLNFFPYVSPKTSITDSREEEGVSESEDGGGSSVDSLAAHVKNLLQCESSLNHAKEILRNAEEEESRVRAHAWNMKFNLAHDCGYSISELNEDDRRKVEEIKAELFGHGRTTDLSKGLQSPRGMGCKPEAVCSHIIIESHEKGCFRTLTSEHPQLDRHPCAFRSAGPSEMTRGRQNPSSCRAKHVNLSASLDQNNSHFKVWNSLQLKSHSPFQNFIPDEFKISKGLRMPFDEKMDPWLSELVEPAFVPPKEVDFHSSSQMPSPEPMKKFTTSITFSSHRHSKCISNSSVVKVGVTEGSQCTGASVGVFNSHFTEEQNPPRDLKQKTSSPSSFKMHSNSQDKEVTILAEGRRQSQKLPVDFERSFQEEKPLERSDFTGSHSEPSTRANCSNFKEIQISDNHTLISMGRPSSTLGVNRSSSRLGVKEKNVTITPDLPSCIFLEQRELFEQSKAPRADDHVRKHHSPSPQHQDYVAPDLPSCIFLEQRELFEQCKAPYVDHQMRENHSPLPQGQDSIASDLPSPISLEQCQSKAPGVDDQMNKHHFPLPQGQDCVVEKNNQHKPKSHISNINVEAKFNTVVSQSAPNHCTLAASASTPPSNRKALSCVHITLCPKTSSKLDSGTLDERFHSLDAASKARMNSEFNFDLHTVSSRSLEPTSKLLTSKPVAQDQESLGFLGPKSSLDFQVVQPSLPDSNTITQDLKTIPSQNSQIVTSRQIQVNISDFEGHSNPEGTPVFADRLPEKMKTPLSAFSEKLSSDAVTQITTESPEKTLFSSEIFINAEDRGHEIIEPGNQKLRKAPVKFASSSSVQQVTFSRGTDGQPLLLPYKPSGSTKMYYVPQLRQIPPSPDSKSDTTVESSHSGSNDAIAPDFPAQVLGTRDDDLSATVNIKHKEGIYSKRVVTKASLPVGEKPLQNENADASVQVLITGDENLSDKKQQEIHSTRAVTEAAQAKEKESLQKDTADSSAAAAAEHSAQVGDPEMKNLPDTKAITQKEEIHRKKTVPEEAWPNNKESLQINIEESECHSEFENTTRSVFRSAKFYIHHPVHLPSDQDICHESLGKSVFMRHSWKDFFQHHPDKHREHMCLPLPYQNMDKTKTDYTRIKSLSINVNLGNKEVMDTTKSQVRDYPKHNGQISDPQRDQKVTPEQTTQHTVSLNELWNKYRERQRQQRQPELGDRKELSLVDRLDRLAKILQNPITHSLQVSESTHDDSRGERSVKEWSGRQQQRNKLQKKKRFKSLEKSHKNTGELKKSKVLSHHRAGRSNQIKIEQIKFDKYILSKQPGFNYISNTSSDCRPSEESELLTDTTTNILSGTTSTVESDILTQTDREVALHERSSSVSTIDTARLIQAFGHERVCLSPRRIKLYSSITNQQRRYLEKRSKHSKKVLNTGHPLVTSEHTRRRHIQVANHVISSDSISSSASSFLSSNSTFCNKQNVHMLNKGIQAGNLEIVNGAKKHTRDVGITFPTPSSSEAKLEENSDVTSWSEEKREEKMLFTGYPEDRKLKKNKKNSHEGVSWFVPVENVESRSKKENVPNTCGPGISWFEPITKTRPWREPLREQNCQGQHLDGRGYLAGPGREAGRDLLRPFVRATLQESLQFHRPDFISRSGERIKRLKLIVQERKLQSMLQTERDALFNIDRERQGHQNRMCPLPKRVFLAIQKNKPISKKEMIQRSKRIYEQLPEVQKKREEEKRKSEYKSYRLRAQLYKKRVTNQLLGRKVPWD

2-NBDG absorption in mature adipocytes in absence of INS (times (vs control)): 3.5
Substance: min-αPKC-FLAG (ALMS1-interacting domain of human PKCα with N-terminal FLAG tag) (from UniProt P05696 336-672)
